Test results reported in patent US20240254202A1 (CONSEJO NACIONAL DE INVESTIGACIONES CIENT FICAS Y T CNICAS …, published 2024).

B1: NbCoV_43 (VHH)
VHH: QVQLQESGGGLVQPGGSLRLSCVASGSIGSINHMAWFRKPPGKERELVASITLAPDEIAYYADSVKGRFAISKGNAQPTLYLQMNSLKPEDTAVYYCHFRQIRANAHDVYWGQGTQVTVSS
notes: also called Nb 43
B2: NbCoV_39 (VHH)
VHH: QVQLQESGGGLVQAGGSLRLSCAASGRTFSSTAMAWFRQAPGQEREFVATISWSGDNTKYADSVKGRFTISRDNAKNTVYLQMNSLKPEDTAVYYCAADPGNFGVPIEYFMFDYWGQGTQVTVSS
notes: also called Nb 39; 39A
B3: NbCoV_104 (VHH)
VHH: QVQLQESGGGLVQPGGSLRLSCAASGSIFRVMGWYRQAPGKEHDLVATITRSGDTNYADSVKGRFTISRDNTKNTVYLQMNNLKPEDTDVYYCYARNFVGHNPDVWGQGTQVTVSS
notes: also called Nb 104

Target: Spike protein of wild-type virus B. 1.499, hCoV-19/Argentina/PAIS-C0102/2020 (Andina Strain) (SARS-CoV-2)
Test: cell-based or functional assay

Row | Binder | wildtype VN assay on Vero cells, neutralizing activity
1 | B1 | 0.1 µM
2 | B2 | 0.4 µM
3 | B3 | 0.3 µM
